Laboratory results: patent US20050123563A1 (INTEGRAL MOLECULAR, published 2005)

Experiments:
[1] = molecular target: T1, SDF-1 (unlabeled chemokine, 8 kDa) (UniProt P48061-2 22-89); test: radioligand competition on CXCR4 lipoparticles: increasing cold SDF-1 against 0.1 nM radiolabeled SDF-1α, 1 h at room temperature, filtration through GF/C filters, gamma counting [box at the upper right]
T1 construct: also called 8 kDa natural ligand (SDF-1); cold ligand (Peprotech)

[2] = molecular target: T2, Protein A (ProA) beads bearing no antibody (Staphylococcal, UniProt P38507 37-477); test: fluorescence microscopy of Protein A beads without antibody, probed with fluorescent lipoparticles containing CXCR4
T2 construct: also called no antibody control

[3] = molecular target: T3, Radiolabeled SDF-1α (Perkin-Elmer) (UniProt P48061-2 22-89); test: radioligand binding: fixed radiolabeled SDF-1α with CXCR3 lipoparticles, filtration, gamma counting
T3 construct: also called radioligand

Binder | Kd [1] [nM] | binding result [2] | binding result [3]
CXCR4 (chemokine receptor, GPCR) incorporated into lipoparticles (receptor, UniProt P61073 1-352, looked up, whole, on cells; also called CXCR4-lipoparticles; CXCR4-containing lipoparticles) MEGISIYTSDNYTEEMGSGDYDSMKEPCFREENANFNKIFLPTIYSIIFLTGIVGNGLVILVMGYQKKLRSMTDKYRLHLSVADLLFVITLPFWAVDAVANWYFGNFLCKAVHVIYTVNLYSSVLILAFISLDRYLAIVHATNSQRPRKLLAEKVVYVGVWIPALLLTIPDFIFANVSEADDRYICDRFYPNDLWVVVFQFQHIMVGLILPGIVILSCYCIIISKLSHSKGHQKRKALKTTVILILAFFACWLPYYIGISIDSFILLEIIKQGCEFENTVHKWISITEALAFFHCCLNPILYAFLGAKFKTSAQHALTSVSRGSSLKILSKGKRGGHSSVSTESESSSFHSS | 8.53 | no binding | 
CXCR3 incorporated into lipoparticles (receptor, UniProt P49682 1-368, looked up, whole, on cells) MVLEVSDHQVLNDAEVAALLENFSSSYDYGENESDSCCTSPPCPQDFSLNFDRAFLPALYSLLFLLGLLGNGAVAAVLLSRRTALSSTDTFLLHLAVADTLLVLTLPLWAVDAAVQWVFGSGLCKVAGALFNINFYAGALLLACISFDRYLNIVHATQLYRRGPPARVTLTCLAVWGLCLLFALPDFIFLSAHHDERLNATHCQYNFPQVGRTALRVLQLVAGFLLPLLVMAYCYAHILAVLLVSRGQRRLRAMRLVVVVVVAFALCWTPYHLVVLVDILMDLGALARNCGRESRVDVAKSVTSGLGYMHCCLNPLLYAFVGVKFRERMWMLLLRLGCPNQRGLQRQPSSSRRDSSWSETSEASYSGL |  |  | no binding (tested: about 1.25 ug lipoparticles)
